Measured values reported in patent US7303752B2, “Hookworm vaccine” (The George Washington University, priority 2001, dated 2007).
Values joined by “and” are separate entries in the source; they are usually repeats but may differ in a detail not shown here. Equal entries are not always repeated.

How the values were obtained:
recombinant Ac-CP-2 = assay: Proteolytic activity of recombinant Ac-CP-2 against Z-Phe-Arg-AMC; type: biochemical, Ancylostoma caninum
Protocol: Purified, recombinant Ac-CP-2 was assessed for proteolytic activity using the fluorogenic peptidyl substrate Z-Phe-Arg-aminomethyl coumarin (AMC) (Bachem). The pH optimum of Ac-CP-2 was assessed using Z-Phe-Arg-AMC at different pH values according to published protocols. The cysteine protease inhibitor E64 was included in some assays at a final concentration of 5 μM. Recombinant Ac-CP-2 was treated with PNGase F and O-glycosidase, according to the manufacturer's instructions (Enzymatic CarboRelease kit, QA-Bio), under denaturing conditions to remove any N-linked and O-linked oligosaccharides.
Canine IgG was purified from sera of vaccinated dogs using protein A-agarose (Amersham Biosciences) as previously described. Purified IgG (10-500 ng) was incubated with 1.0 μg of recombinant Ac-CP-2 for 45 mins prior to assessing proteolytic activity as described above.

anti-ASP-2 antibodies = assay: ELISA of canine IgG1, IgG2, IgE after Ac-ASP-2/AS03 vaccination (Example 12); type: in vivo, dog
Protocol: This study was conducted and reported in compliance with the intent of the Good Laboratory Practice Regulations (F.R. Vol. 43, No. 247, pp. 60013-60025, Dec. 22, 1978 and subsequent amendments). The study was audited by Quality Assurance while in progress to assure compliance with GLP regulations, adherence to the protocol and standard operating procedures. The data and final report were audited by Quality Assurance to assure that the report accurately described study conduct and results. The vaccine trial was designed to test Ac-ASP-2 formulated with Adjuvant System 03 (AS03) 44 obtained from GlaxoSmithKline. The rationale for selecting AS03 as an adjuvants is discussed elsewhere 37. The ten purpose bred beagles were randomized into two arms: immunized with Ac-ASP-2 (SEQ ID NO: 20) or adjuvant only (control). To make six doses of Ac-ASP-2 (SEQ ID NO: 20) formulated with AS03, 600 μg of recombinant protein (0.3 ml of Ac-ASP-2 (SEQ ID NO: 20) at a concentration of 2 mg.ml^−1) was mixed with 1.2 ml of 20 mM Tris-HCl, 0.5 M NaCl, pH 7.9 and 1.5 ml of AS03; the contents of the tube were vortex mixed for 30 seconds then shaken at low speed for 10 minutes. […]
Beagles were immunized with formulated Ac-ASP-2 (SEQ ID NO: 20) as previously described^37. […] Each animal's specific antibody response was evaluated by indirect ELISA using serum taken prior to the infective challenge^37. […]

[1] = test system: antibody to recombinant proteins; assay: Pre-challenge antibody titer ELISA, trial with Ac-ASP-2, Ac-API, Ac-MEP-1, Ac-APR-1 in AS03; type: in vivo, dog
Protocol: (§1) The vaccine trial was designed to test Ac-API, Ac-ASP-2, Ac-MEP-1, Ac-APR-1 formulated with Adjuvant System 03 (AS03) obtained from GlaxoSmithKline (GSK). The rationale for selecting AS03 as an adjuvants is discussed elsewhere (Stoute et al, 1997). The ten purpose bred beagles were randomized into five arms: immunized with the adjuvant-formulated recombinant proteins or adjuvant only (control). To make six doses of antigen formulated with AS03, […] of recombinant protein (0.3 ml of antigen at a concentration of 2 mg.ml^−1) was mixed with 1.2 ml of 20 mM Tris-HCl, 0.5 M NaCl, pH 7.9 and 1.5 ml of AS03; the contents of the tube were vortex mixed for 30 seconds then shaken at low speed for 10 minutes. Dogs were immunized with 100 g of formulated antigen in a final volume of 0.5 ml. ASO3 only control was prepared as described above, with PBS included instead of antigen. Formulation of GSK adjuvants were conducted according to the protocol provided by GSK. All injections were performed intramuscularly (IM). Test and control articles were prepared on the day of injection. All animals received 4 immunizations approximately 3 weeks apart.
Beagles were immunized with formulated Ac-ASP-2 as previously described (Loukas et al, 2004). The vaccines were administered IM three times beginning at age 62+/−4 days. Boosts were administered to the dogs at intervals of 21 days. Blood was drawn at least once every 21 days and serum was separated from cells by centrifugation. Each animal's specific antibody response was evaluated by indirect ELISA using serum taken prior to the infective challenge (Loukas et al, 2004). Recombinant Ac-ASP-2 was coated onto microtiter plates at a concentration of 5 g.ml^−1. Dog sera were titrated between 1:100 and 1:2×10^6 to determine endpoint titers. Anti-canine IgG1, IgG2 and IgE antibodies conjugated to horse-radish peroxidase (Bethyl Laboratories) were used at a dilution of 1:1,000.

A. caninum = assay: Canine vaccine trial with Ac-ASP-2, Ac-API, Ac-MEP-1, Ac-APR-1 in AS03, footpad challenge with 500 A. caninum L3; type: in vivo, dog
Protocol: as §1, with “The ten purpose bred beagles were randomized into five arms: immunized with the adjuvant-formulated recombinant proteins or adjuvant only (control).” left out
A. caninum larvae were cultured from eggs collected in the feces of infected dogs. All hookworms in the infective challenge were approximately equal age (17±7 days post hatching). The species identity of the infective larvae were validated using PCR. All dogs were infected by the footpad method with the same dose of 500 L3 of A. caninum (Zhan et al, 2001). Larval challenge occurred on one of three consecutive days (at age 120+/−9 days). Fourteen-sixteen days after the final immunization, dogs were anesthetized using a combination of ketamine and xylazine (20 mg.kg^−1 and 10 mg.kg^−1 respectively), and 500 A. caninum L3 in a final volume of […] were applied to the footpad.

Molecule: CC(C)C[C@H](NC(=O)[C@H]1O[C@@H]1C(=O)O)C(=O)NCCCCN=C(N)N [E64]
- % reduction in proteolytic activity (recombinant Ac-CP-2; 1.0 μg Ac-CP-2, Z-Phe-Arg-AMC, 50 ng pooled IgG or E64 5 μM, mean of triplicate): 100 ± 0%
- cleavage of the peptide substrate, in words (recombinant Ac-CP-2; final concentration of 5 μM): completely ablated

B1: Ac-ASP-2: A. caninum secreted protein 2, SEQ ID NO: 20; recombinant from Sf9 insect cells, given with AS03 (protein, listed as Ancylostoma caninum)
chain: MLVLVPLLALLAVSVHGNSMRCGNNGMTDEARQKFLDVHNSYRSMVAKGQAKDAISGNAPKAAKMKKMIYDCNVESTAMQNAKKCVFAHSHRKGVGENIWMSTARQMDKAQAAQQASDGWFSELAKYGVGQENKLTTQLWNRGVMIGHYTQMVWQESYKLGCYVEWCSSMTYGVCQYSPQGNNMNSLTYEKGNPCTKDSDCGSNASCSAGEALCVVRG
- IgG1 and IgG2 antibody titers to recombinant Ac-ASP-2, in words (anti-ASP-2 antibodies; immunized canines): strong
- IgE titers to Ac-ASP-2, in words (anti-ASP-2 antibodies; test canines): one log lower than the IgG1 and IgG2 titers
- Pre-challenge antibody titer, IgE, GEOMEAN ([1]; geometric mean of group): 100
- Pre-challenge antibody titer, IgG1, GEOMEAN ([1]; geometric mean of group): 10,837
- Pre-challenge antibody titer, IgG2, GEOMEAN ([1]; geometric mean of group): 20,950
- IgG1 and IgG2 antibody titers to recombinant Ac-ASP-2, in words ([1]; immunized canines): strong
- Pre-challenge antibody titer, IgE ([1]; individual dogs): 100
- Pre-challenge antibody titer, IgG1 ([1]; individual dogs): 13,500 (4×) and 4,500
- Pre-challenge antibody titer, IgG2 ([1]; individual dogs): 40,500 (2×) and 13,500 (3×)
- IgE titers to Ac-ASP-2, in words ([1]; test canines): one log lower than the IgG1 and IgG2 titers
- worm burdens, Maximum (A. caninum; 5 dogs): 226.00
- worm burdens, Minimum (A. caninum; 5 dogs): 89.00
- worm burdens, Mean (A. caninum; 5 dogs, ASO3 control 203.8000): 166.0000
- worm burdens, Median (A. caninum; 5 dogs, ASO3 control 215.0000): 174.0000
- worm burden, Colon, Male, Average (A. caninum; group average, AS03 control 5): 4
- worm burden, Colon, Female, Average (A. caninum; group average, AS03 control 9): 5
- worm burden, Intestine, Female, Average (A. caninum; group average, AS03 control 95): 81
- worm burden, Intestine, Male, Average (A. caninum; group average, AS03 control 96): 76
- worm burden, Total, Average (A. caninum; group average, AS03 control 204): 166
- worm burden, Colon, Female (A. caninum; individual dogs): 5 and 4 and 3 and 8 and 6
- worm burden, Colon, Male (A. caninum; individual dogs): 5 and 4 and 1 (2×) and 9
- worm burden, Intestine, Female (A. caninum; individual dogs): 87 and 101 and 115 and 72 and 28
- worm burden, Intestine, Male (A. caninum; individual dogs): 62 and 72 and 107 and 85 and 54
- worm burden, Total (A. caninum; individual dogs): 160 and 181 and 226 and 174 and 89
